According to US20040092720A1 (US Dept. of Health and Human Services, published 2004):

B1: Peptide D44 (peptide)
peptide: GGSLAFGTLLCIAIVLRFKKA
notes: alanine-scan variant of the domain IV 21-mer
B2: Peptide D51 (peptide)
peptide: GGSLAFGTLLCIAAVLRFKKT
notes: as for B1
B3: Peptide D52 (peptide)
peptide: GGSLAFGTLLCAAIVLRFKKT
notes: as for B1
B4: Peptide D54 (peptide)
peptide: GGSLAFGTLACIAIVLRFKKT
notes: as for B1
B5: Peptide D50 (peptide)
peptide: GGSLAFGTLLCIAIALRFKKT
notes: as for B1
B6: Peptide D46 (peptide)
peptide: GGSLAFGTLLCIAIVLRFAKT
notes: as for B1
B7: Peptide D48 (peptide)
peptide: GGSLAFGTLLCIAIVLAFKKT
notes: as for B1
B8: Peptide D57 (peptide)
peptide: GGSLAFATLLCIAIVLRFKKT
notes: as for B1
B9: Peptide D45 (peptide)
peptide: GGSLAFGTLLCIAIVLRFKAT
notes: as for B1
B10: Peptide D53 (peptide)
peptide: GGSLAFGTLLAIAIVLRFKKT
notes: as for B1
B11: Peptide D47 (peptide)
peptide: GGSLAFGTLLCIAIVLRAKKT
notes: as for B1
B12: Peptide D49 (peptide)
peptide: GGSLAFGTLLCIAIVARFKKT
notes: as for B1
B13: Peptide D55 (peptide)
peptide: GGSLAFGTALCIAIVLRFKKT
notes: as for B1
B14: Peptide D56 (peptide)
peptide: GGSLAFGALLCIAIVLRFKKT
notes: as for B1

Each binder was assayed against T1, recombinant human IL-6 (human, UniProt P05231 30-212, labeled with radioactive iodine) (assay: radioiodinated IL-6 on peptide array).
T1 construct: Labeled probe in solution, added to wells that carry the synthetic peptides; also called IL-6 ligand; Interleukin-6

Counts/minute bound [counts/minute] | Binder
1380 | VGMEAATDEGMPKSYLPQTVRQGG [Peptide E90]
1250 | QHESSPDISHFERSKQVSSVNEED [Peptide E83]
1210 | ERPEDLQLVDHVDGGDGILPRQQY [Peptide E80]
1250 | TVVHSGYRHQVPSVQVFSRSESTQ [Peptide E77]
1100 | HVDGGDGILPRQQYFKQNCSQHES [Peptide E81]
1380 | ESTQPLLDSEERPEDLQLVDHVDG [Peptide E79]
1090 | VSAADAFGPGTEGQVERFETVGME [Peptide E88]
1000 | GSGQMKMFQEVSAADAFGPGTEGQ [Peptide E87]
1130 | TEGQVERFETVGMEAATDEGMPKS [Peptide E89]
1020 | FERSKQVSSVNEEDFVRLKQQISD [Peptide E84]
1230 | MPKSYLPQTVRQGGYMPQ [Peptide E91]
1230 | VPSVQVFSRSESTQPLLDSEERPE [Peptide E78]
1110 | NEEDFVRLKQQISDHISQSCGSGQ [Peptide E85]
1240 | QISDHISQSCGSGQMKMFQEVSAA [Peptide E86]
1090 | RQQYFKQNCSQHESSPDISHFERS [Peptide E82]
1200 | QNTSSTVQYSTVVHSGYRHQVPSV [Peptide E76]

What follows are binders tested against T1, recombinant human IL-6 (assay: radioiodinated IL-6 on peptide array; experiment D11-D57).
Protocol: Synthetic peptide arrays were constructed in 96-well microtiter plates in accordance with the method set forth in WO 91/02714 (Saxinger), and used to test the binding of recombinant human IL-6 that had been labeled with radioactive iodine (radiolabeling by standard methods). After incubating the radiolabeled IL-6 ligand in a well with each synthetic peptide, a washing step was performed to remove unbound label, and the relative level of radioactivity remaining in each well of the plate was evaluated to determine the relative affinity of each peptide for IL-6 ligand.

Counts/minute bound [counts/minute] | Counts/minute bound (counts/minute) | Binder
1000 | – | GGSLAFGTLL [Peptide D22]
22700 | – | LAFGTLLCIAIVLRFKKT [Peptide D30]
1180 | – | GGSLAFGTLLCIAI [Peptide D18]
1110 | – | GGSLAFGTLLC [Peptide D21]
1050 | – | GGSLAF (also called GGSLAF) [Peptide D26]
981 | – | GGSLAFGT [Peptide D24]
24700 | – | SLAFGTLLCIAIVLRFKKT [Peptide D29]
7690 | – | GGSLAFGTLLCIAIVLRF [Peptide D14]
3950 | – | GGSLAFGTLLCIAIVLR [Peptide D15]
16100 | – | GGSLAFGTLLCIAIVLRFK [Peptide D13]
21400 | – | B1
28500 | – | B2
27700 | – | B3
22000 | – | B4
17900 | – | B5
30800 | – | B6
29400 | – | B7

Counts/minute bound [counts/minute] | Counts/minute bound (counts/minute) | Binder
22300 | – | B8
28600 | – | B9
34900 | – | B10
20900 | – | B11
22100 | – | B12
22100 | – | B13
23000 | – | B14
– | 1960 | LRFKKT [Peptide D42]
1200 | – | GGSLAFGTLLCI [Peptide D20]
26400 | – | GSLAFGTLLCIAIVLRFKKT [Peptide D28]
952 | – | GGSLAFG (also called GGSLAFG) [Peptide D25]
2460 | – | GGSLAFGTLLCIAIVL [Peptide D16]
1340 | – | GGSLAFGTLLCIAIV [Peptide D17]
18100 | – | GGSLAFGTLLCIAIVLRFKK [Peptide D12]
997 | – | GGSLAFGTL [Peptide D23]
1150 | – | GGSLAFGTLLCIA [Peptide D19]
